Consider three molecules from patent publication US20250353921A1 (ASTRIA THERAPEUTICS, published 2025).

What is called Kd is the free concentration of one partner at which half of the binding sites on the other are occupied at equilibrium, for simple one-to-one binding. By koff is commonly meant a measure of how fast the partners let go of each other. By kon is commonly meant the rate constant with which the complex forms.

Assay [1] has as its target T1, human OX40-CRD-avi-his (human, UniProt P43489 29-170, limits assumed).
T1 construct: Only the CRD region of the ECD was used
T1 sequence: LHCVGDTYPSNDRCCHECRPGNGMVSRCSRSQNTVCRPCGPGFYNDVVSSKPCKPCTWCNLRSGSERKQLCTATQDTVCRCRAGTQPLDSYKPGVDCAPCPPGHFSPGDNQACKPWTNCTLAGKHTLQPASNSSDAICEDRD
As to the kind of experiment: SPR Biacore T200, ratio of KD values. Background: In SPR one partner is held on a chip, and binding of the other changes the refractive index at the surface.

Another assay has as its target T2, cynomolgus OX40-ECD-his (cynomolgus).
T2 construct: extracellular domain; also called Cyno OX40
Put plainly: SPR Biacore T200, ratio of KD values.

The target in assay [2] is T3, Human FcRn protein (Acro Biosystems, catalog NO: FCN-H52W7) (human, UniProt P55899 24-297; P61769 21-119).
T3 construct: also called huFcRn
As to the kind of experiment: SPR Biacore 8K+, antibody immobilised, FcRn analyte, pH 6.0; pH 6.0; ratio of the KD of MAB1 to that of MAB10.

The target of assay [3] is T4, rabbit (rb) OX40 protein (rabbit).
T4 construct: also called Rabbit OX40
Put plainly: ELISA on coated OX40, ratio of EC50 values. On the technique in general: An ELISA detects its analyte on a solid surface through an enzyme-linked reagent.

In assay [4] the target is T5, cynomolgus monkey (cy) OX40 protein (Example 5) (cynomolgus monkey). Put plainly: ELISA on coated OX40, ratio of EC50 values.
For assay [5], the target named is T4, rabbit (rb) OX40 protein. As to the kind of experiment: SPR Biacore 8K+, single cycle kinetics, MAB10 captured by anti-human Fc, OX40 analyte.
Assay [6] deals with T6, Human (hu) OX40 protein (Example 5 cross reactivity) (human, UniProt P43489 29-216, limits assumed).
T6 construct: whole entry named
T6 sequence: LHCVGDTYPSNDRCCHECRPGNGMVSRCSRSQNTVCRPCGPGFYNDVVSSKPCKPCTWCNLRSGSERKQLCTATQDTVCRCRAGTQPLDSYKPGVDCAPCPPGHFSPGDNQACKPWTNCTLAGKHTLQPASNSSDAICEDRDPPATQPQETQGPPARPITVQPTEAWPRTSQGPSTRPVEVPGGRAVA
Described as above.

For assay [7], the target named is T5, cynomolgus monkey (cy) OX40 protein …. Described as above.
A further assay addresses T7, rat (ra) OX40 protein (rat, UniProt P15725 20-210, limits assumed).
T7 construct: also called Rat OX40
T7 sequence (looked up): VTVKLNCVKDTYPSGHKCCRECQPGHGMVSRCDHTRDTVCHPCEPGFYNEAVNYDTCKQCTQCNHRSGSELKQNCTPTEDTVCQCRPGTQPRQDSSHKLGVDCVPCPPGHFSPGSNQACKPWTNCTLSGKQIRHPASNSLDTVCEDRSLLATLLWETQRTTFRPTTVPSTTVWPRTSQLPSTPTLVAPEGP
As to the kind of experiment: SPR single cycle kinetics, MAB10 captured.

The next assay deals with T8, mouse (mo) OX40 protein (mouse, UniProt P47741 20-211).
T8 construct: also called Mouse OX40
T8 sequence (looked up): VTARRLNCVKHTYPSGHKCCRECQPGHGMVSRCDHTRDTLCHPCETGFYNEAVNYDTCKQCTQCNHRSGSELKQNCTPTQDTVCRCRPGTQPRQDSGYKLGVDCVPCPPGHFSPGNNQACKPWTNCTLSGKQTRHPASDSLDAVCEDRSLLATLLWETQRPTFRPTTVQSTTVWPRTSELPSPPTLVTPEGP
As to the kind of experiment: SPR single cycle kinetics, MAB10 captured.

Assay [8] concerns the target Human CD64 (FcγRI), Sino Biological 10256-H08H (human, UniProt P12314 16-288). Put plainly: SPR Biacore 8K+, ratio of KD values.
The target in assay [9] is T1, human OX40-CRD-avi-his. Put plainly: SPR, affinity for the extracellular domain (ECD) of human OX40; lower end of the range.
For assay [10], the target named is T9, human OX40 (TNFRSF4, CD134) on cells (human, UniProt P43489 29-277).
T9 construct: also called OX40 on HPB-ALL cells; Jurkat-NFκB-OX40 cells
T9 sequence: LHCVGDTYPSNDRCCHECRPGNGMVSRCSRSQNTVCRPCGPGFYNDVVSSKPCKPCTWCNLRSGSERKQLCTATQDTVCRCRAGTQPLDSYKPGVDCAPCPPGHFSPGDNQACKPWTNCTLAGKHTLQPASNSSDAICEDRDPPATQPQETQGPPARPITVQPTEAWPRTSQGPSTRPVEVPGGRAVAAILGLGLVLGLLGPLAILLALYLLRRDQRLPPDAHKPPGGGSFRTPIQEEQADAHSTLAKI
Put plainly: flow cytometry on OX40-expressing HPB-ALL cells; cells pre-incubated with cold GBR 830, washed, then stained with a single dose of the competitor MAB1-AF647. On the technique in general: Flow cytometry measures light scatter and fluorescence of single cells or particles in a stream.

T3 sequence (P55899 24-297 limits assumed, chain 1 of 2): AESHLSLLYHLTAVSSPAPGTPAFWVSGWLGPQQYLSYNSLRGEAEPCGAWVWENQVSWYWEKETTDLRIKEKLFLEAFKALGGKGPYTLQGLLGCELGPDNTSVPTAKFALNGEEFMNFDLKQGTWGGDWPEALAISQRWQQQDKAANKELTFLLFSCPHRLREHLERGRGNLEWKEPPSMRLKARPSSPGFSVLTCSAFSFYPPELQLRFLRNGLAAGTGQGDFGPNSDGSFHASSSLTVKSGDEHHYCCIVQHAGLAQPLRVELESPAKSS
T3 sequence (P61769 21-119 limits assumed, chain 2 of 2): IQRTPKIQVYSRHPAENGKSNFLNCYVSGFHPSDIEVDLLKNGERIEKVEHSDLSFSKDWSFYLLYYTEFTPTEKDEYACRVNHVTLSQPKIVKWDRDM
Human CD64 (FcγRI), Sino Biological 10256-H08H, sequence (P12314 16-288 limits assumed): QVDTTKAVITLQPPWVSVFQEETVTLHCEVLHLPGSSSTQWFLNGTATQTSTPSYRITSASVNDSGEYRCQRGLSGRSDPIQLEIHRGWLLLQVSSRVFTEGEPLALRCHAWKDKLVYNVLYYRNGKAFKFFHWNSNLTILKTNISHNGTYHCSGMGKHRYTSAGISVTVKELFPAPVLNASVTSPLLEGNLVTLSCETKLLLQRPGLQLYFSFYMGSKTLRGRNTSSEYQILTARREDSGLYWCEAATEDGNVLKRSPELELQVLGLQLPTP

B1: MAB1 IgG1 (antibody)
heavy: not shown
light: EIVLTQSPATLSLSPGERATLSCRASSSVSYMHWYQQKPGQAPRPWIYATSNRATGIPARFSGSGSGTDYTLTISSLEPEDFAVYYCQQFGAWPWTFGQGTKVEIKRTVAAPSVFIFPPSDEQLKSGTASVVCLLNNFYPREAKVQWKVDNALQSGNSQESVTEQDSKDSTYSLSSTLTLSKADYEKHKVYACEVTHQGLSSPVTKSFNRGEC
notes: Human IgG1, kappa
Regarding B1, the “fold increase in affinity (KD GBR 830 / KD MAB1)” value in the assay with human OX40-CRD-avi-his [1] was determined as 13.4 fold; in the assay with cynomolgus OX40-ECD-his, 5.5 fold.

B2: MAB10 (antibody, human IgG1, kappa)
heavy: QVTLKESGPALVKPTQTLTLTCSFSGFSLSTSGMGVGWIRQPPGKALEWIAHIWWDDDKYYNTALKTRLTISKDTSKNQVVLTMTNMDPVDTATYYCARIDWDGFAYWGQGTLVTVSSASTKGPSVFPLAPSSKSTSGGTAALGCLVKDYFPEPVTVSWNSGALTSGVHTFPAVLQSSGLYSLSSVVTVPSSSLGTQTYICNVNHKPSNTKVDKKVEPKSCDKTHTCPPCPAPELLGGPSVFLFPPKPKDTLYITREPEVTCVVVDVSHEDPEVKFNWYVDGVEVHNAKTKPREEQYNSTYRVVSVLTVLHQDWLNGKEYKCKVSNKALPAPIEKTISKAKGQPREPQVYTLPPSRDELTKNQVSLTCLVKGFYPSDIAVEWESNGQPENNYKTTPPVLDSDGSFFLYSKLTVDKSRWQQGNVFSCSVMHEALHNHYTQKSLSLSPGK
light: EIVLTQSPATLSLSPGERATLSCRASSSVSYMHWYQQKPGQAPRPWIYATSNRATGIPARFSGSGSGTDYTLTISSLEPEDFAVYYCQQFGAWPWTFGQGTKVEIKRTVAAPSVFIFPPSDEQLKSGTASVVCLLNNFYPREAKVQWKVDNALQSGNSQESVTEQDSKDSTYSLSSTLTLSKADYEKHKVYACEVTHQGLSSPVTKSFNRGEC
notes: MAB1 with M252Y, S254T and T256E (EU numbering) in the IgG1 Fc; also called MAB1 Heavy Chain + YTE
Regarding B2, in [2], the “fold increase of the binding constant against MAB1” value is 8.8 fold. Moreover, the results for the “fold EC50 against human OX40” value (with rabbit (rb) OX40 protein [3]; in [4]) were 8 fold and 4 fold, respectively. Also, the Kd with rabbit (rb) OX40 protein [5] was 3300 nM; in assay [6], 6.7 nM; in assay [7], 268 nM. In addition, the koff with rabbit (rb) OX40 protein [5] is 0.03 s⁻¹; in assay [6] it was 0.0021 s⁻¹; in [7], 0.052 s⁻¹. Also, the association rate constant (kon) stood at 9000 M⁻¹ s⁻¹ in the assay with rabbit (rb) OX40 protein [5], 300000 M⁻¹ s⁻¹ in assay [6] and 200000 M⁻¹ s⁻¹ in assay [7]. Further, the binding result with rat (ra) OX40 protein and with mouse (mo) OX40 protein was “no binding” throughout. For the same molecule, the “fold-change of KD relative to MAB1” value in assay [8] worked out at 1.6 fold.

B3: GBR 830 (telazorlimab) (antibody, human IgG1, kappa)
heavy: not shown
light: EIVLTQSPATLSLSPGERATLSCRASSSVSYMHWYQQKPGQAPRPWIYATSNRATGIPARFSGSGSGTDYTLTISSLEPEDFAVYYCQQWSSNPWTFGQGTKVEIKRTVAAPSVFIFPPSDEQLKSGTASVVCLLNNFYPREAKVQWKVDNALQSGNSQESVTEQDSKDSTYSLSSTLTLSKADYEKHKVYACEVTHQGLSSPVTKSFNRGEC
notes: IgG1; also called Antibody 830; ISB830
On to B3, for which the affinity in the assay with human OX40-CRD-avi-his [9], expressed as Kd, was 80 nM. The “IC50 (read off the curve)” value in assay [10] was around 0.2 µg/mL.
